This data set can be described thus: soluble fraction after stress (log2 fold change); higher = more stays soluble; pooled small domains, quantitative proteomics. Conditions: stress: pH 4. An outline of the steps: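 Values are on a log2 scale, where higher means more of the domain stayed soluble after pH 4 stress. They are fold changes in the soluble amount of each domain from pooled custom libraries, measured by high-throughput quantitative proteomics. The fold change is taken to reflect aggregation propensity.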
As to “HMSVIETLLSDREREVLTHLVNGYDAKRIAEITGISTLTVRKHIANIYTKLHVNSKAQVISMAHKNKWF”, the “soluble fraction (log2)” value is -0.773.
Turning to “HMSVIKERLTEFLTYKGIGQIKFAEAAGLSRGFVNVLGDGISSKSLNKISQAFPELNTLWLTTGEGEML”, the “soluble fraction (log2)” value is -0.061.
Regarding “HMSVKTIRKTEFAKRLYSLMLEKNWNQSDLARASGMGRDSVSQYIRANNTPSPQNLKKLAEALGVEPVELY”, the “soluble fraction (log2)” value amounted to 0.0509.
Regarding “HMSVKYLQIYHAIREKILSNEYAINQQLPDEITLTKEFNSSRMTVKKALDLLVSEGLIFRKRGQGTFVLSR”, the “soluble fraction (log2)” value was not below 0.43.
The same measure for “HMSVLDEVRKLSFHQRNAVFLFYFEGYSMKEIAQIFHVKEGTVSSWLTRARKQLRKQMEEEVLYDESLP”: -0.0883.
On to “HMSVLLDDLSPREREILQLVVEGHSSTKIAGMLGLASATVDTYRSRLMAKLHIDNLPDLVRFAIRHGLIS”, for which the “soluble fraction (log2)” value was -0.122.
Turning to “HMSVLLKEEGSLQLARHGAAYFIIYSAQEHPNQRRHLKISEEESNRIMEGTPIEEIFLAYSG”, the “soluble fraction (log2)” value is -0.972.
As for “HMSVLQGLIESFKAGDRNLYEVAERLNVTEPFLAEALKDYRARFPKGVQVDNFWISFRPYLTIAEV”, the “soluble fraction (log2)” value is -0.886.
As to “HMSVNEKVRLFRELNQWSQEEMAERMNMSVAGYAKIERGETNISLHKLKQIASVLQIDLLDLVS”, the “soluble fraction (log2)” value was -0.867.
As for “HMSVPEAAERAIDVAQMRRALGELSPEQQRVLELAYFGGLTRQEIARATGTPLGTVHTRARLGLQNLRARL”, the “soluble fraction (log2)” value is -0.0378.
Consider “HMSVPRVWTDIQGRRVKGDFEGLRGDLVVLRVGGKSYAFPLVRLIASDQAYARSLVAGNPSK”, for which the “soluble fraction (log2)” value is 0.22.
Take “HMSVPSLVGKTDSEAQSAIKSAGLKVGTVTYQYSDETEKGYVVSQSPYSGNKVNAGSTVNIVVSKGK”: the “soluble fraction (log2)” value is 0.155.
The value for “HMSVPSVAAVREQTGLSQVKFASLLGVSVRTLQEWEQGRRAPSGAARTLLMVAAKNPQALLEV” was -0.0956; that for “HMSVSVEEDADGRVWVYYQDQKMDITDLFDENGVYGFNLEKGDRTVYVEVTKNADGTYSFTQTD” was -1.34.
The value for “HMSVTIENQINTYFQTRDKISRDELVALIKKDFANWTDNTINIYVSSLQKRGIIHSLSRGMYALGN” was 0.22; that for “HMSVTYRLLITSSPGQAEVFLDGKRVGITPFSARLAAGWYQVRVSKEGYNLWEQHVQLREDQRLTATLT” was 0.229.
Consider “HMSWAAQVVDKMTNDQLIKSLNEIVNTGKQLGLDITVEQNGDKNFIMTVKDSKGNVQLVTPIG”, for which the “soluble fraction (log2)” value is -0.937.
The value for “HMSWEQELIEKANEIIDLYPEKRSALGPLLYLAQERDGYISDESIVEISNLVGITEVQVKSVASFYSMYK” was -2.88; that for “HMSWNIHEAVEYYKGQDAPQNQFALVELLKEVQEHNGGVLTDIAVEEIAALLNTKVTFLNAVIKRYPSLK” was -0.163.
As for “HMSYEDLIQAVSGHFGIEIRALLSEDRKKENMIPRQVAMYLLKNKLHYTYERIGNIFSGRNHTAVMYSV”, the “soluble fraction (log2)” value was -0.403.
Take “HMSYGKVQFVIDAKDAVLSIDGKETDYEKPVKLTYGSHTITVYSSDYDTWKRNLYVNSEKSTVVINLA”: the “soluble fraction (log2)” value is -0.0156.
The value for “HMSYKDIKEASDTGTYRDEENNIDVKWQKLFNGHNEYFDIEAYRDGERVEINNQQADRYIYLIKQEMD” was -0.357; that for “HMSYPEIFQSLTEREQKIADMIAEHLSNKEIAEKMFLSEGTIKQYINQIYSKLQITGDIRNKRKQLIELFH” was -0.0222; that for “HMSYTPGQWVEASMPNATFFRIVPSGNATADKMLAVATPMKVISTSGTYVKVELDSGDVGFVPEIMV” was 0.102.
As for “HMTAEASELRERIRAAMATLPPAQQRVIELAYFEGLTQREIAALLNEPLGTIKTRMRLGMRKLKDVL”, the “soluble fraction (log2)” value was determined as 0.367.
On to “HMTAIKAGDLVKITGTKYYGGQTIPGWVKNQNWYVQEVSGDRAVINKNESGTNAIMSPIRVSDLTPVS”, for which the “soluble fraction (log2)” value is -0.0468.
For “HMTALPPNVSIDSDERRLLEAIGFDPVDMDVLARDGQFSSVDLFRLLVSLELKGLVENQHGAYQRL”, the “soluble fraction (log2)” value was -1.67.
On to “HMTALSAREHEVLQLITRGYTADEIAAMLQISRHTALTYVRRIYSKLKVNSKAEAIFEVRQR”, for which the “soluble fraction (log2)” value was -0.215.
As to “HMTANPHKPEPLQIDTSDITPGVTVIHKAFGNGTVVSVDNNRILIDFDGIEKKFPFPGAFLYGFLQK”, the “soluble fraction (log2)” value is -1.17.
The value for “HMTAPDDFIRAEVTASGKNGMAVAELSKRVRTRFKSFKVRELGYPHLAGYLADVEGVRVYKQGRENWVAK” was -0.241; that for “HMTAQASDIEKVLQVIETLGFRGHTLPGENRTAIGVTGNRGSIDPAHFENLPGVADAIRVTKPY” was -0.292.
As for “HMTARPTLEKLKYMIHEAGITENSLKVIVATKGHYGLDADISTYSDDFITRWIIPNWTKIVQTISNNK”, the “soluble fraction (log2)” value was determined as 0.0354.
With “HMTASSYMGMQLGRLEELLKKEVLSLSEKTELKDLISDFDKIPEVVSPKIIGRYLQLKNQHFAKINA”, the “soluble fraction (log2)” value is -0.2.
On to “HMTAVVPNFKGKLISELSNFVADKNVRYTIIDSIYDPEEKSGIVIKQDPEEKTQVKHNRIIYLYVTST”, for which the “soluble fraction (log2)” value was -1.11.
Regarding “HMTDDFAGRFNELLIHNQETAVTAATRLEVSPAVITKWRQGKSIPSGEYIKRIVETYHVSADYLLGVIDTP”, the “soluble fraction (log2)” value is -0.0517.
Regarding “HMTDEEFSRIVKYTAVRYGINLYHKKVMVEGRLSNYLAANGFKSYTEYMDRVEADYTGQEAQNLINILTT”, the “soluble fraction (log2)” value is -1.3.
As for “HMTDFDPDGREKLIKVQKALHFNNHQLADALRVGQATFSSYIYGRVAAGVPVRVVKAAEDLLKNSKATV”, the “soluble fraction (log2)” value was determined as 0.146.
The value for “HMTDFDWSLFTQQLKRFNLFLSYDDREKLQTFQTLYGLNELDLAEYVAKASAGEKNGLNFNYLRQLINKEK” was -1.08.
For “HMTDFNTFSDAIIAAVGSRASGLKVVDNAVSVMVDVSGLNEDQRVEIEADVRAAAEHAGAQSVRIMLT”, the “soluble fraction (log2)” value is -0.5.
The same measure for “HMTDLALHIGKTLRELRQRRGWSLDKTAQATGVSKAMLGQIERGESSPTVVTLWRISSGLQASFSEFLPP”: 0.0792.
As for “HMTDLDVAVTMTVALEEAVNGATRRVRLPNGKELNVKIPAGVAAGQQIRLKGQGETAPGHRPGDVLITVNI”, the “soluble fraction (log2)” value is -0.626.
Regarding “HMTDLQNDIQAFNLKKMSYQHETKKLEEKRNPEKLEKLEQDIQALYLRIMENPNMRAFDSAKQALYLQIM”, the “soluble fraction (log2)” value was -1.55.
Turning to “HMTDLVVGLAGITLEPLRPAGKAEFNGSVVDVVSLGDYIEKSTAIQIVEIEGNRIVVHHGED”, the “soluble fraction (log2)” value was -1.09.
For the sequence “HMTDQYEVQNLVGLTVREAQEKEGVKDIFEVREVGSEFSAEYDAGLIVRQSPDAGEQRKGEGLVIEVWVSA”, the “soluble fraction (log2)” value was -0.409.
Turning to “HMTDSLELADLLRRAIITGEYKPRERLVEMELAQKYSVSRTPVREALKHLEALGLVKMERYKGAMVAD”, the “soluble fraction (log2)” value is -0.573.
The same measure for “HMTDSQLVEAENHVALRQAMAHLGPRERELIGLYYFEEQSQTQIAARFGVSQMQVSRWLTSAVGRIRGQMA”: 0.131; for “HMTDWNTVEKETLSAIQKVLSGQASWIDLSPADHSIRHMQHEMVQQAGLISQSYGKEPMRRIRIYQNP”: -0.036.
In the case of “HMTEDADIERRLTGILASAGWYRSLAVEVKEGIVYLDGATASGNHRDWAGSLAAKTEGVVAVVNRIEVQP”, the “soluble fraction (log2)” value is -0.285.
As to “HMTEDIAVRILEFLEDNNGFYALNDKTPSEKIHDLFGVSKKKFKIALGGLYKQRLITVSDAGVTLVK”, the “soluble fraction (log2)” value is -0.404.
Take “HMTEDTPIIVERVVADIDENVVAIVRKFKDAFKSITAQREIKKKLRSILWVNYQIKDQEVFDKAYQYIEMY”: the “soluble fraction (log2)” value is -0.784.
As for “HMTEEDVVIFSGLSDRDLKMVQTELANSGIKYTLPTSGTVSVPNSEIARAQMVLAMAGIPRS”, the “soluble fraction (log2)” value is -0.0859.
The same measure for “HMTEEVIIQNYIGKNFNDVRDELEAKGITVDEPNMKYSDEFKENTIMAQSIKPGQPLKPGGFNSIKFDVS”: 0.147.
Consider “HMTEFFNMQDMFYFKLTGDVTSKERRQSLGKILGIGYGNAAQMVSRLNNYGITKEEFTNAINEIEKQMEAG”, for which the “soluble fraction (log2)” value was -0.511.
On to “HMTEISGIEKFLASGAINGIGPAMAKKIVAEFGEKTLEIIAKSPNELLKVPGIGKKTAEKISTSYLEQ”, for which the “soluble fraction (log2)” value turned out to be 0.0637.
The same measure for “HMTEKEEERTEDLNYYRLNLISMLKSSYPEYLDDEEFISNRSQEAAEAFEDAVRSGSNYLDASAESNRTLY”: -0.717; for “HMTEKIRLTVDEAGKNQRVDKYISTLLTQFSRSSIKTWIETGNILLDNTRTKPRTLLSPGQVIDIQPRFED”: -0.144; for “HMTEKIVFNIDGQTGRIDKILADFMTGTSRSQIQAWVKDGNLMVNDKAVKSNYKVQDGDLLELTIPEPEQ”: -0.378.
In the case of “HMTELIEDYVELIGDLIRHRGEARAADIANRMAVSQATVSKMIRRLNELGLVTSKPYRSLFLTDEGQKMAE”, the “soluble fraction (log2)” value was -0.469.
Turning to “HMTELLTPKQRQVFELALREGYYDVPRRTSITEMARLLGVAKSTLSAQMHRMEATVMSTFAEEIRKQ”, the “soluble fraction (log2)” value stood at 0.0506.
Consider “HMTENIPPVKIEEMRQKWQDIVLLHGVTSGRKIKSGQATYIWLYRNDQNWLLTFNSRHLSQPQV”, for which the “soluble fraction (log2)” value is -0.263.
The value for “HMTEPKILTAEESQRLDLILVQQWPELGRRALRELVQQGGVRINGELALKAGQYVQAGERVEVAVP” was -0.879.
For “HMTEQKNNEQQNAVNEKKQALKQLMEKGKEKGSLSYNEVNALLDKLEFTEDQKAIVYDQLHSEDIELQ”, the “soluble fraction (log2)” value came to 0.22.
Take “HMTEQLTLVGKTGVTTTDLRPSGKVEVDGKRYDAVADNGAFISKGAHIKVVRYVTGQVYVVPTD”: the “soluble fraction (log2)” value is -0.146.
For “HMTERIRLHDDIGSWVEKHGATRSALIPVLQGIQRSYNEISEYAMQEVADRLDIHPVEVYSVVSFYSF”, the “soluble fraction (log2)” value was 0.103.
Take “HMTESFEFTMNDLVQNNLIMGSGAKERRIAVGEALGIGYTNAKQFLSRLNHYGITRKEFDDEIEKVNQN”: the “soluble fraction (log2)” value is -0.217.
On to “HMTETEIVIGGKYRHYKGGEYELVSIVKHSETLEELVIYKSLSTGEMWARPKSLFVGLVDGQPRYTL”, for which the “soluble fraction (log2)” value was -1.39.
On to “HMTETIPVSERLFRYLFEEKGKRVQKIQQTSHARVRMERSPYSVVVSGTKDAVEAAMESLKATEKELLEA”, for which the “soluble fraction (log2)” value amounted to 0.321.
As for “HMTETPDDLLAALKKNKKAQATFDAFSPSNKKEYILWITEAKTEATRTKRLETAIEWMSEGKARNW”, the “soluble fraction (log2)” value was 0.0435.

The record behind these values is the domain aggregation screens of Martell et al. (2025).
